Our source for the activity values is US20110294167.

Data set [1] deals with T1, ORF904 primase (residues 1-370) (Sulfolobus islandicus).
T1 sequence: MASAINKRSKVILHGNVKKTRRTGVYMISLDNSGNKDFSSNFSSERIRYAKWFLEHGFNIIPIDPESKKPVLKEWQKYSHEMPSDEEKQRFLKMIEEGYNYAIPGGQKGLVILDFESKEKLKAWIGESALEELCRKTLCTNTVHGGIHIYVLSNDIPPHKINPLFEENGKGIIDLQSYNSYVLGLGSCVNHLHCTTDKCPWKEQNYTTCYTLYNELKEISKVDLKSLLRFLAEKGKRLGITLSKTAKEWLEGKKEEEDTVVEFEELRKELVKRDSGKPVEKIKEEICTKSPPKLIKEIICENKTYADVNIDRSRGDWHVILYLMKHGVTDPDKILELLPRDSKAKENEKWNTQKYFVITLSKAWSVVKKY
Particulars: primer synthesis inferred from primer-free amplification with Phi29, 1500 ng primase vs Phi29 only; 10 mM MgCl2, 1 mM ATP, 30 C.

The target in data set [2] is T7 gp4 K318A primase (Bacteriophage T7) (UniProt P03692). The following applies: amplification with Phi29 and T7 DNA polymerase; 10 mM MgCl2, NTPs, 30 C.

On to M13 ssDNA (M13mp18), for which the activity was determined as 13 fold in data set [1] and 4000 fold in data set [2].
